Results: patent US20030077318A1
Values belong to the substance of their own block, whether it stands above or below them.

Columns and labels:
[1] = target: L^d on transfected Drosophila S2 (fly) cells with QL9 peptide (mouse) (UniProt P01887); experiment: cell-based or functional assay
[2] = target: L^d on transfected Drosophila S2 (fly) cells with p2Ca peptide (mouse) (UniProt P01887); experiment: cell-based or functional assay
[3] = target: recombinant biotinylated L^d immobilized on avidin-coated sheep red blood cells (mouse) (UniProt P01897); experiment: flow cytofluorometry of L^d on avidin-coated SRBC

IL-2 Production (Day 2), ^3HTdR incorporation of CTLL; L^d + B7.1 cells combined with L^d ICAM-1 cells [1]: 500 cpm | IL-2 Production (Day 2), ^3HTdR incorporation of CTLL; fly cells expressing L^d [1]: 100 cpm | IL-2 Production (Day 2), ^3HTdR incorporation of CTLL; fly cells expressing L^d + B7.1 [1]: 400 cpm | IL-2 Production (Day 2), ^3HTdR incorporation of CTLL; fly cells expressing L^d + B7.1 + ICAM-1 [1]: 159000 cpm | IL-2 Production (Day 2), ^3HTdR incorporation of CTLL; fly cells expressing L^d + ICAM-1 [1]: 200 cpm | Proliferation (Day 3), ^3HTdR incorporation; L^d + B7.1 cells combined with L^d ICAM-1 cells [1]: 133000 cpm | Proliferation (Day 3), ^3HTdR incorporation; fly cells expressing L^d [1]: 200 cpm | Proliferation (Day 3), ^3HTdR incorporation; fly cells expressing L^d + B7.1 [1]: 60900 cpm | Proliferation (Day 3), ^3HTdR incorporation; fly cells expressing L^d + B7.1 + ICAM-1 [1]: 264000 cpm | Proliferation (Day 3), ^3HTdR incorporation; fly cells expressing L^d + ICAM-1 [1]: 73900 cpm | IL-2 Production (Day 2), ^3HTdR incorporation of CTLL; L^d + B7.1 cells combined with L^d ICAM-1 cells [2]: 300 cpm | IL-2 Production (Day 2), ^3HTdR incorporation of CTLL; fly cells expressing L^d [2]: 200 cpm | IL-2 Production (Day 2), ^3HTdR incorporation of CTLL; fly cells expressing L^d + B7.1 [2]: 200 cpm | IL-2 Production (Day 2), ^3HTdR incorporation of CTLL; fly cells expressing L^d + B7.1 + ICAM-1 [2]: 64600 cpm | IL-2 Production (Day 2), ^3HTdR incorporation of CTLL; fly cells expressing L^d + ICAM-1 [2]: 100 cpm | Proliferation (Day 3), ^3HTdR incorporation; L^d + B7.1 cells combined with L^d ICAM-1 cells [2]: 1500 cpm | Proliferation (Day 3), ^3HTdR incorporation; fly cells expressing L^d [2]: 200 cpm | Proliferation (Day 3), ^3HTdR incorporation; fly cells expressing L^d + B7.1 [2]: 300 cpm | Proliferation (Day 3), ^3HTdR incorporation; fly cells expressing L^d + B7.1 + ICAM-1 [2]: 142000 cpm | Proliferation (Day 3), ^3HTdR incorporation; fly cells expressing L^d + ICAM-1 [2]: 1500 cpm
Substance: 2C T-cell receptor (TCR), on CD8+ lymph node T cells of 2C TCR transgenic mice

percent of cells labeled [3]: 99.8%
Substance: monoclonal antibody 30.5.7 (anti-L^d)
